In assay [1] the target is T1, human NKp46 on cells (CHO-K1/NKp46 cells; CD56+ NK cells of human PBMCs) (human, UniProt O76036 22-304).
T1 construct: whole, on cells; also called NCR1; CD355
In words: Kd,app, flow cytometry CHO-K1/NKp46. The procedure: Plates were then incubated for 1 hour at room temperature in the dark. Post-incubation, the plates were centrifuged at 500 rpm for 5 minutes and supernatant discarded. Samples were then washed twice in 200 μL of 1× phosphate buffer saline (PBS; Gibco™ 10-010-023) at 500 rpm for 5 minutes. Cells were resuspended in 100 μL of PBS and transferred to a new 96-well V-bottom polypropylene plate (Greiner Bio-One 651201). Plates were centrifuged at 500 rpm for 5 minutes and supernatant discarded.
Preparation of samples for flow cytometry: Zombie Violet™ Fixable Viability Dye (BioLegend® 423113) was prepared as a 1:1000 dilution in PBS and 100 μL of viability dye was added to each well and incubated in the dark at 4° C. for 30 minutes. To ensure NKp46 expression, untreated CHO-K1/NKp46 cells were stained with either anti-human NKp46 or an isotype control. Antibody cocktails were prepared by diluting 1.5 μL of either, PE anti-human NKp46 (BioLegend® 331908; clone 9E2) or PE isotype control IgG1, K (BioLegend® 400112), per 100 μL of stain buffer (1×PBS supplemented with 2% FBS). Cells were resuspended in master mix cocktail (100 μL) and incubated at 4° C. for 30 minutes in the dark. Subsequently, cells were washed 3 times in 100 μL of stain buffer for 5 minutes at 500 rpm and supernatant was discarded. Cells resuspended in 200 μL of stain buffer were kept at 4° C. and in the dark until read by BD FACSCelesta™ flow cytometer.
The binding affinity of the bicyclic peptides were calculated using a four-parameter logistic regression using Prism GraphPad software.
A general note: Flow cytometry measures light scatter and fluorescence of single cells or particles in a stream.

The target in assay [2] is T1, human NKp46 on cells (CHO-K1/NKp46 …). Kind of assay: Kd,app, flow cytometry, total CD56 population of human PBMCs. The procedure:
Cells were resuspended in master mix cocktail (100 μL) and incubated at 4° C. for 30 minutes in the dark. Subsequently, cells were washed 3 times in 100 μL of stain buffer for 5 minutes at 500 rpm and supernatant was discarded.

Assay [3] has as its target T2, recombinant human NKp46-Fc fusion biotinylated via Avi-tag (human, UniProt O76036 22-255, limits assumed, biotin on Avi-tag).
T2 construct: also called biotinylated NKp46
In words: SPR Method 1. The procedure:
SPR experiments were performed to determine kₐ (M⁻¹s⁻¹), kd (s⁻¹), KD (nM) values (where measurable) of various bicyclic peptides to immobilised NKp46.
For analysis of peptide binding to NKp46, a Biacore 3000 instrument was used with a Cytiva Streptavidin chip. Capture of the protein (recombinant human NKp46-Fc fusion biotinylated via Avi-tag) was carried out at 25° C. with HBS-N (10 mM HEPES, 0.15 M NaCl, pH 7.4) as the running buffer and biotinylated NKp46 was captured to a level of 400-800 RU using a dilution of protein to 0.2 μM in buffer. Buffer was then changed to PBS/0.05% Tween 20 and a dilution series of the peptides was prepared in this buffer with a final DMSO concentration of 0.5% with a top peptide concentration of 100 nM-5000 nM and 6 further 2 or 3-fold dilutions. The SPR analysis was run at 25° C. and a flow rate of 50 μl/min with 60 seconds association and 200-400 seconds dissociation time. Data were corrected for DMSO excluded volume effects. All data were double-referenced for blank injections and reference surface using standard processing procedures and data processing and kinetic fitting were performed using Scrubber software, version 2.0c (BioLogic Software). Data were fitted using simple 1:1 binding model allowing for mass transport effects where appropriate.

Assay [4] deals with T3, Human NKp46 Fc tag (Acro Biosystems, NC1-H5257) (human, UniProt O76036 22-255).
T3 construct: bought; also called Fc-tagged human NKp46
Kind of assay: SPR Method 1 and/or 2. Summed up: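 Fc-tagged human NKp46 captured on anti-human IgG surface (500–1000 RU); compounds run in PBS-P+ with 2% DMSO at 25 °C, 50 μL/min, 60 s association, 400 s dissociation. Double-referenced, DMSO-corrected; KD from steady-state 1:1 fit, kinetic constants from kinetic 1:1 fit where appropriate.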

In assay [5] the target is T4, human CD16a V176 variant, biotinylated (human, UniProt P08637 17-208, N-terminally biotinylated in-house).
T4 construct: supplier is told for the AlphaScreen assay only; also called V Variant; FcγRIIIA V variant
Kind of assay: AlphaScreen competition vs mouse IgG2a. On the procedure:
(§1) Bicyclic peptides were evaluated with a CD16a-IgG competition assay using Perkin Elmer AlphaScreen™ technology. Acceptor beads (Perkin Elmer 6762003) were chemically conjugated via a reductive amination reaction with a mouse IgG2a mAb to link via the free amines, based the manufacturer's protocol. Briefly, beads were centrifuged and resuspended in a 130 mM sodium phosphate buffered solution pH 8.0 containing 0.2 mg mAb, 20 mM NaBH₃CN (Sigma 296945) and 0.06% P20 surfactant (Cytiva Life Sciences, BR-1000-54) and incubated on a rotary shaker at 44° C. for 22 hours. Unbound sites were then blocked by adding a final concentration of 3 mg/ml carboxymethoxylamine (CMO) (Sigma C13408), before continuing shaking incubation for a further 1 hour. Beads were washed by centrifugation and resuspension in 100 mM TRIS-HCl pH 8.0 (Sigma T2694), before a final resuspension in PBS (GIBCO 14190)+0.05% Proclin-300 (Sigma 48912-U), at 5 mg/ml and storage at 4° C. until use.
(§2) The assay was performed in white 384 well plates (PerkinElmer, 6007290) using assay buffer 25 mM HEPES (Sigma-Aldrich, H0887), 100 mM NaCl (Sigma-Aldrich, S5150), 0.5% BSA (Sigma-Aldrich, A3294), 0.05% P20 (Cytiva Life Sciences, BR-1000-54), pH7.4 for all dilutions. […] Mouse IgG2a-conjugated acceptor beads described above were added at a final concentration of 20 ug/ml and incubated at room temperature for 30 minutes under subdued lighting. Streptavidin coated donor beads (PerkinElmer, 6760002) were added a final concentration of 20 ug/ml and incubated at room temperature for 60 minutes under subdued lighting. […] Data was normalised to a high control containing all assay components except Bicyclic peptide and fit to a four-parameter non-linear regression in GraphPad Prism 8.0.2 to generate an IC50 value.
Background: Alpha assays give light when donor and acceptor beads are brought close together.

Assay [6] addresses T5, human CD16a F176 variant, biotinylated (human, UniProt P08637 17-208, C-terminally biotinylated).
T5 construct: supplier is told for the AlphaScreen assay only; also called F Variant; FcγRIIIA F variant
Kind of assay: AlphaScreen competition vs mouse IgG2a. The procedure:
as §1, §2

The target in assay [7] is T4, human CD16a V176 variant, biotinylated. Kind of assay: SPR. The procedure:
(§3) The SPR analysis was run at 25° C. at a flow rate of 50 μl/min with 60 seconds association and dissociation between 60 and 200 seconds. Data were corrected for DMSO excluded volume effects. All data were double-referenced for blank injections and reference surface using standard processing procedures and data processing and kinetic fitting were performed using Scrubber software, version 2.0c (BioLogic Software). Data were fitted using simple 1:1 binding model allowing for mass transport effects where appropriate.
(§4) For analysis of peptide binding, a Biacore 8k+ instrument was used with a CM5 chip (Cytiva). All experiments were carried out at 25° C. Streptavidin was immobilized on all flow cells by standard amine coupling chemistry. The running buffer was HBS-N(Cytiva, 10 mM HEPES, 0.15 M NaCl, pH 7.4) and the flow rate was 10 μl/min. The carboxymethyl dextran surface was activated with a 1:1 ratio of 0.4 M 1-ethyl-3-(3-dimethylaminopropyl) carbodiimide hydrochloride (EDC)/0.1 M N-hydroxy succinimide (NHS) (Cytiva) for 420s. Streptavidin (ProSpec, cat no. PRO-791) was diluted to 0.2 mg/ml in 10 mM sodium acetate pH 4.5 and was injected onto the chip surface for 600 s. Residual activated groups were blocked with a 420 s injection of 1 M ethanolamine (pH 8.5). The final surface density was 2000-3000 RU. Biotinylated CD16a was diluted to 5 μg/ml in HBS-N and was captured on flow cell 2 only of the streptavidin chip at a flow rate of 10 μl/min to 1500-2500 RU. The buffer was then changed to PBS-P+(Cytiva) supplemented with 0.5-2% DMSO. […] The flow rate was 30 μl/min with 100 s association and 400 s dissociation. Data were corrected for DMSO volume exclusion effects. All data were double-referenced against blank injections and reference surface response using standard processing procedures. Data processing and kinetic fitting was performed using Biacore Insight Evaluation Software with Extended Screening and Characterization Extension (Cytiva). Data were fitted using steady state affinity 1:1 binding model to determine KD. Data were fitted using kinetic 1:1 binding model to determine kinetic constants where appropriate.
On the technique in general: In SPR one partner is held on a chip, and binding of the other changes the refractive index at the surface.

Assay [8] addresses T5, human CD16a F176 variant, biotinylated. Kind of assay: SPR. On the procedure:
as §3, §4

For assay [9], the target named is T6, CD16a/FCgRIIIa (F158 variant) on HEK293 cells, Terbium-labelled (UniProt P08637 17-254, limits assumed, Terbium donor dye).
T6 construct: whole, on cells; also called cellular CD16a
Kind of assay: HTRF competition vs IgG-d2 on HEK293 cells. The procedure: Binding to cellular CD16a/FCgRIIIa (F158 variant) was determined through competition with IgG for binding to CD16a receptors expressed on HEK293 cells.
The experimental procedure followed the manufacturer's instructions detailed in the product information for the CD16 (FCγRIIIa) kit (Cisbio-6FR3APAG). […] Bicycle peptides were dispensed using Echo compound handler at a top concentration of 20 μM. The competing unlabeled antibodies and bicyclic peptides were added in a three-fold dilution series in Tag-lite buffer into PerkinElmer-ProxiPlate-384 Plus.
The HEK293 cell expressing Terbium-labelled CD16a were thawed and washed in PBS and added to the wells of PerkinElmer-ProxiPlate-384 Plus containing the competitor compounds. […] The data was plotted in Graph pad prism and IC50-values were determined to indicate unlabeled antibody or bicyclic peptide competition for cellular binding to the CD16a receptor.

Numbered stars: 1 amine (or outer) side, 2 acyl side, 3 side chain; on linkers, the order of the positions; unused ones are H or OH. Bridge positions count the residues as written; N and C are the ends. Square brackets hold non-standard residues; d marks the D form. Ends that are not written are not given here. * marks the point of attachment. TBMT = 2,4,6-tris(bromomethyl)-s-triazine, C(c1nc(C[*:2])nc(C[*:3])n1)[*:1]; TATA = O=C(CC[*:1])N1CN(C(=O)CC[*:2])CN(C(=O)CC[*:3])C1; Pent4ynoyl = C#CCCC(=O)*; PYA = not defined here

T1 sequence (O76036 22-304): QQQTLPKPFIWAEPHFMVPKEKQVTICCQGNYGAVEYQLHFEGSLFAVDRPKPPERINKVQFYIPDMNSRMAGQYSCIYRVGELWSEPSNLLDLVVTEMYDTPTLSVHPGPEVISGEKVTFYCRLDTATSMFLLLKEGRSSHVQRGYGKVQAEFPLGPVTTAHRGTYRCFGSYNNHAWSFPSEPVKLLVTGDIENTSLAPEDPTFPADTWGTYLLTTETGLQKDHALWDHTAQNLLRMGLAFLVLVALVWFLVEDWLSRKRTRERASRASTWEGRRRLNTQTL
T3 sequence (O76036 22-255 limits assumed): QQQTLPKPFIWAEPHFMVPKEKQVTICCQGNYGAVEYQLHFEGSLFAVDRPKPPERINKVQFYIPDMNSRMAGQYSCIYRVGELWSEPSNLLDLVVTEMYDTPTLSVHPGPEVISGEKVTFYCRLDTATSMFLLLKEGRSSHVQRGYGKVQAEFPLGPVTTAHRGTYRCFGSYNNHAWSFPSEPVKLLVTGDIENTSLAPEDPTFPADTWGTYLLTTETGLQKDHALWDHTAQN
T2 sequence (O76036 22-255 limits assumed): as above
T5 sequence (P08637 17-208 limits assumed, change not shown): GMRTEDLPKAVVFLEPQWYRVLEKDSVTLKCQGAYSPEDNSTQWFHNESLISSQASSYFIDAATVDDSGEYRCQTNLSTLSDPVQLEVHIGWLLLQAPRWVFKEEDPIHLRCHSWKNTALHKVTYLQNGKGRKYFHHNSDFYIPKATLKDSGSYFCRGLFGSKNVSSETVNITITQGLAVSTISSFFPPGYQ
T4 sequence (P08637 other isoform, or with tags, fused parts or gaps mutant limits assumed): as the sequence (P08637 17-208 limits assumed, change not shown) above, with F160V counted along it
T6 sequence (P08637 17-254 limits assumed, change not shown): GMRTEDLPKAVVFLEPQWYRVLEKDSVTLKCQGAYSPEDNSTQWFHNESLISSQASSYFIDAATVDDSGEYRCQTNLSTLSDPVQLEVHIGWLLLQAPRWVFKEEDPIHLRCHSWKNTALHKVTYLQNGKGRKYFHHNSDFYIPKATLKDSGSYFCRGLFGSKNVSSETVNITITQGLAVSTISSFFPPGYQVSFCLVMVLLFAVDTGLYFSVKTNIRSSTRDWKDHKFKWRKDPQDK

B1: BCY15922 (peptide)
peptide: ACNLQAPCMQTGKVCAK-NH2
modifications: linker 2-8-15 via TATA (inferred); not fully specified (residue 17); also: AF488 on linker
notes: homodimer of BCY15687; scaffold TATA
In turn, B1 came in with a Kd in assay [1] of 1.48 nM.

Take ACYLPDWLCGDEYCA[dK](Pent4ynoyl)-NH2 (linker 2-9-14 via TATA; not fully specified; also: AF488 label on linker, homodimer of BCY15013; scaffold TATA) [BCY15455]: the Kd in [1] turned out to be 2.25 nM.

B2: BCY15663 (peptide)
peptide: ACYLPDYLCGDEYCAK
modifications: not fully specified; C-terminal D-Lys(PYA) joined to N-(amine-PEG2)-N-bis(PEG3-azide) linker carrying AF488
notes: homodimer of BCY15452; scaffold TATA
Consider B2, for which the Kd in assay [2] was determined as 0.028 nM; in assay [1] it was 0.3 nM.

Regarding ACNLQAPCMQTGKVCAK (C-terminal Lys(PYA), scaffold TATA) [BCY15687], the results for the Kd in assay [3] and in assay [4] were 960 nM and 783 nM, respectively.

B3: BCY15921 (peptide)
peptide: ACDLTTHNCQWGICAK-NH2
modifications: linker 2-9-14 via TATA; not fully specified (residue 16); also: homodimer via shared N-(amine-PEG2)-N-bis(PEG3-azide) linker
notes: scaffold TATA
In the case of B3, the Kd in assay [1] was determined as 1.48 nM.

With ACYLPDYLCGDEYCAK (C-terminal D-Lys(PYA), scaffold TATA) [BCY15452], the values for the Kd in [3] and in assay [4] were 27 nM and 13 nM, respectively.

B4: BCY15013 (peptide)
peptide: ACYLPDWLCGDEYCA[dK](Pent4ynoyl)-NH2
modifications: linker 2-9-14 via TATA; N-terminus assumed
SMILES: C#CCCC(=O)NCCCC[C@@H](NC(=O)[C@H](C)NC(=O)[C@@H]1CSCCC(=O)N2CN3CN(C2)C(=O)CCSC[C@H](NC(=O)[C@H](CC(C)C)NC(=O)[C@H](Cc2c[nH]c4ccccc24)NC(=O)[C@H](CC(=O)O)NC(=O)[C@@H]2CCCN2C(=O)[C@H](CC(C)C)NC(=O)[C@H](Cc2ccc(O)cc2)NC(=O)[C@@H](NC(=O)[C@H](C)N)CSCCC3=O)C(=O)NCC(=O)N[C@@H](CC(=O)O)C(=O)N[C@@H](CCC(=O)O)C(=O)N[C@@H](Cc2ccc(O)cc2)C(=O)N1)C(N)=O
notes: scaffold TATA
Take B4: the Kd in assay [3] turned out to be 138 nM; in assay [4] it was 59 nM.

Take ACDLTTHNCQWGICAK(PYA) (linker 2-9-14 via TATA (inferred); reading uncertain, scaffold TATA) [BCY15686]: the Kd in assay [3] is 276 nM.

For ACVGLEELGPCSDLCAK(Pent4ynoyl)-NH2 (linker 2-11-15 via TBMT (inferred), scaffold TBMT) [BCY13886], the half-inhibitory concentration (IC50) in assay [5] turned out to be 3190 nM; in [6], 1830 nM. Also, the Kd in [7] was found to be 4280 nM; in assay [8], 8360 nM.

As for ACPPTVYCHPLDCAK (C-terminal Lys(PYA), scaffold TATA) [BCY15685], the IC50 was determined as 3480 nM in [5], 11000 nM in assay [6] and 7560 nM in assay [9]. Further, the Kd in assay [7] was 1850 nM; in [8] it was 7370 nM.

The IC50 is the concentration that inhibits the measured activity by half.
